Experimental findings from the nanobody polyreactivity screen of Harvey et al. (2022) are described below.

A short description of this data set: yeast display, Sf9 membrane polyspecificity reagent, FACS + sequencing; frameworks hold sequencing errors. In a few lines:
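Nanobodies came from a synthetic yeast display library in Saccharomyces cerevisiae BJ5465, induced with galactose for 36–48 hours and stained for 1 hour at 4 °C with 10% biotinylated, detergent-solubilized Sf9 membrane reagent. Cells were enriched on streptavidin microbeads and then FACS-sorted, with low and high (top ~1%) gates set on anti-HA fluorescence for expression and streptavidin fluorescence for reagent binding. Each polyreactivity label reflects the gate a clone came from. Genes were amplified by colony PCR, sequenced by MiSeq 2 × 250 and filtered by CDR length.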
“QVQLVESGGGLVQAGGSLRISCAASGIIFRLNAMGWYRQAPGKERELVAAIRRRGGSTYNADSVKGRFTISRHNAKNTVYLQMNSLKPEDTAVYYGAKDPHGSDFGYWGQGTQVTVSS”: the “polyreactivity (PSR sort gate)” value is “low polyreactivity”. Under “QVQLVESGGGLVQAGGSLRISCAASGIIFRYYAMGWYRQAPGKERELVARISSGGSTKYADSVKGRYTISRDNAKNTVYLQMNSLKPEDTAVYYCAAEYYSLRYAIFYYWGQGTQVTVSS” stands “high polyreactivity”; under “QVQLVESGGGLVQAGGSLRISCAASGIIFYLYTMGWYRQAPGKERELVAAITRGGSTYYADSVKGRFTISRDNAKNTVYLQMNSLKPEDTAVYYCAAKHGPGYRRWYDYWGQGTQVTVSS”, “high polyreactivity”.

Turning to “QVQLVESGGGLVQAGGSLRISCAASGITFPWYAMGWYRQAPGKERELVAAINRAGNTNYADSVKGRFTISRDNAKNTVYLQMNSLKPEDTSVYYCAARWRYKYTLGYWGQGTQVTVSS”, the “polyreactivity (PSR sort gate)” value is given as “high polyreactivity”. The result for “QVQLVESGGGLVQAGGSLRISCAASGITFRRYGMGWYRQAPGKERELVATITSSVGSRTYYADSVKGRFTISRDNAKNTVYLQMNSLKPEDTAVYYCAADHRVYDSEYWGQGTQVTVSS” reads “low polyreactivity”; that for “QVQLVESGGGLVQAGGSLRISCAASGITFSENDMGWYRQAPGKERELDAAISSGDGTNYADSVKGRFTISRDNEKNTVYLQMNSLKPEDTAVYYCNADGFVDWAWSEQYIPNIHLDYWGQGTQVTVSS”, “low polyreactivity”. The result for “QVQLVESGGGLVQAGGSLRISCAASGITFTSYAMGWYRQAPGKERELVAAISSSGVRTYYADSVKGRFTISRDNAKNTVYLQLNSLKPEDTAVYYCATRRRVLDGYDYGGQGTQVTVSS” reads “high polyreactivity”. The result for “QVQLVESGGGLVQAGGSLRISCAASGLIFADYTMGWYRQAPGKERDLVAVITDGDSTYYADSVKGRFTISRDNAKNTVYLQMNSLKPEDTAVYYCAAELDGSNYTLDYWGQGTQVTVST” reads “low polyreactivity”. As to “QVQLVESGGGLVQAGGSLRISCAASGLTFYRYAMGWYRQAPGKERELVAAIRVSGNTYYADSVKGRFTISRDNAKNTVYLEMNSLKPEDTAVYYFAAKPYYFYGMDYWGQGTQVTVSS”, the “polyreactivity (PSR sort gate)” value is on record as “high polyreactivity”. Under “QVQLVESGGGLVQAGGSLRISCAASGLTFYVYAMGWYRPAPGKERELVAAISGRGGRTYYADSVKGRFTISRDNAKNTVYLQMNSMKPEDTAVYYCAARYPRYRYVEYGYNYWGQGTQVTLSS” stands “high polyreactivity”; under “QVQLVESGGGLVQAGGSLRISCAASGNIFDIYAMGWYRQAPGKERELVAAITSGVRTYYADSVKGRFTISRDNAKNTVYLQMNSLKPEDTSVYYCNAVWRRSHAYGYWGQGTQVTVSS”, “low polyreactivity”; under “QVQLVESGGGLVQAGGSLRISCAASGNIFDRYAMGWYRQAPGKEMELVAGITWSGGSTYYADSVKGRFTISRDNAKNTVYLQMNSLKPEDTAVYYCAKDPHGSDFGYWGQGTQVTVSS”, “low polyreactivity”.

For the sequence “QVQLVESGGGLVQAGGSLRISCAASGNIFGVYAMGWYRQAPGKERELVATITTGGSTYYADSVKGRFTISRDNAKNTVYLQMNSLKPEDTAVYYCAADVGGGNYVYYGNDYDDGYWGQGTQVTVSS”, the “polyreactivity (PSR sort gate)” value is listed as “low polyreactivity”. Under “QVQLVESGGGLVQAGGSLRISCAASGRIFGDNGMGWYSQAPGKERELVTYADSVKGRFTISRDNAKNTVYLQMNSLKPEDTAVYYCYKDPPRFSGLDENYWGQGSQVTVSS” stands “low polyreactivity”. The result for “QVQLVESGGGLVQAGGSLRISCAASGRIFGINSMGWYRQAPAKERELVAAMSRGGTTNYADSVKGRFTISRDNAKNTVYLQMNSLKPEDTAVYYCNAVGFYAPNTFDYWGQGTQVTVSS” reads “high polyreactivity”; that for “QVQLVESGGGLVQAGGSLRISCAASGRIFRVYAMGWYRQAPGKERELVAAISYSGGRTFYADSVKGRFTNSRDNAKNTVYLQMNSLKPEDTAVYYCAATSYSTQALPPFDYWGQGTQVTVSS”, “low polyreactivity”; that for “QVQLVESGGGLVQAGGSLRISCAASGRTFGPNAMGWYIKAPGKERELVAAIRYSGGSTYYADSVKGRFTISRDKAKNTVYLQMNSLKPEDTAVYYCAADYVSYVGERGTLYVRYDYWGQGTQVTVSS”, “high polyreactivity”.

“QVQLVESGGGLVQAGGSLRISCAASGRTFGPYAMGWYIQAPGKEREFVAAISYSGGSTYYADSVKGRFTISRDNAKNTVYLQMNSLKPEDTAVYYCAVDIDSNSGTRDYWGQGTQVTVSS”: the “polyreactivity (PSR sort gate)” value was “low polyreactivity”.

With “QVQLVESGGGLVQAGGSLRISCAASGRTFRRYEMGWYREAPGKERELVASISSSAGSTYYADSVKGRFTISRDNAKNTVYFQMNSLKPEDTAVYYCAFVPTVYARSRYGYWGQGTQVTVSS”, the “polyreactivity (PSR sort gate)” value is reported as “high polyreactivity”. Under “QVQLVESGGGLVQAGGSLRISCAASGRTFYDNTMGWYRQAPGKERELVAAINWSGTRTYYADSVKARFTISRDNAKNTVYLQMNSLKPEDTAVYYCAADGPFRRTYGYWGLGTQVTVSS” stands “low polyreactivity”. For “QVQLVESGGGLVQAGGSLRISCAASGRTVAIYAMGWYIKAPGKEREFVAAISWSGGDTYYADSVKGRFTISRDNAKNTVYLQMNSLKPVDPAVYYCAARDNDYEGRDLQYELDYWGQGTQVTVSS”, the “polyreactivity (PSR sort gate)” value is recorded as “low polyreactivity”.

With “QVQLVESGGGLVQAGGSLRISCAASGRTVWNTLGWYRQAPGKERELVAAISYSGGTTYYADSVKGRFTISRDNAKNTVYLQMNSLNPEDTAVYYCAAVRVLRGVKYNYWGQGTEVTVSS”, the “polyreactivity (PSR sort gate)” value is “high polyreactivity”. Consider “QVQLVESGGGLVQAGGSLRISCAASGSIFASNTMGWYRQARGTERELVAGITKIGSSTYYADSVTGRFTISRDNAKNTVYLKMNSLKPEDTAVYYCNAYGPNIYSSRYDYWGQGTQVTVSS”, for which the “polyreactivity (PSR sort gate)” value is “low polyreactivity”. Under “QVQLVESGGGLVQAGGSLRISCAASGSIFDYYAMGWYIQAPGKERELVAAISWSGGSTYYADSVKGRFTISRDNAKNTVYLQMNSLKPVDTAVYYCAAEYYGGEFDYWGQGTQVTVSS” stands “low polyreactivity”. The result for “QVQLVESGGGLVQAGGSLRISCAASGSIFGYYAMGWYRQAPGKERELVAVITWNTGNTYYADSVKGRFTISRDNAKNTVYLQMNSLKPEDNAVYYCAADQTGWGDTYDYWGQGTQVTVSS” reads “low polyreactivity”; that for “QVQLVESGGGLVQAGGSLRISCAASGSIFLYNDMGWYRQAPGKERELVAAITSTGNTNYADSVKGRFTISRDNAKNTVYLQMNSLNRKRPRSITALNVSCTSVVVGYDYWGQGTQVTVSS”, “low polyreactivity”; that for “QVQLVESGGGLVQAGGSLRISCAASGSIFLYYAMGWYRQPPGKEREFVAAISYSGGRTYYADSVKGRFTISRDNAKNTVYLQMNSLKPEDTAVYYCNALYRLGVSGLTQSRYGYWGQGTQVTVSS”, “high polyreactivity”. In the case of “QVQLVESGGGLVQAGGSLRISCAASGSIFRGNAMGWYRQAPGKERELVAAISKSGGSTYYADSVKGRITISRDNAKNTVYLQMNSLKPEDTAVYYCAARTTYLYGMYYWGQGTQVTVSS”, the “polyreactivity (PSR sort gate)” value was “low polyreactivity”.

For “QVQLVESGGGLVQAGGSLRISCAASGSIFRQYAMGLYRQAPGKEWELVAAITYSGGNTYYADSVKGRFTISRDNAKNTVYLQMNSLKPEDTAVYYCAADYGSRSWEYNYWGQGTQVTVSS”, the “polyreactivity (PSR sort gate)” value was “low polyreactivity”. Under “QVQLVESGGGLVQAGGSLRISCAASGSIFRVYAMGWYRPAPGKERELVASITLSGGSTYYADSVKGRVTISRDNAKNTVYLQMNSLKPDDTAVYSCAARKRYRNPNTSRGMDYWGQGTQVNVSS” stands “high polyreactivity”; under “QVQLVESGGGLVQAGGSLRISCAASGSIFRYYAMGWYRQAPGKEREFVDSITYRGGRTYYADSVKGRFTISRDNAKNTVYLQMNSLKPEDTAVYYCAARYRVRYYERDYWGQGTQVTVSS”, “high polyreactivity”; under “QVQLVESGGGLVQAGGSLRISCAASGSIFTAYAMGWYRQAPGKERELVAAITQSAGSTYADSVKGRFTISRDNAKNTVYLPMHSLNQEDTAVSYCAARYRYPYYARYGYWGQGTQVTVSS”, “high polyreactivity”. Under “QVQLVESGGGLVQAGGSLRISCAASGSIFWDNVMGWYRQAPGKERELVADIDSWDGGSTYYADSVKGRFTISRDNAKNTVYLQMNSLKPEDTAVYYCNTDVLWWRGGDDYWGQGTQVTVSS” stands “low polyreactivity”. Under “QVQLVESGGGLVQAGGSLRISCAASGSIFWRYVMGWYRPAPGKERELIAAISSGGGITYYADSVKGRFTISRDNAKNTVYLQMNSLKPEDTAVYYCAARTYRGQYYTGFGFGYWGQGSQVTVSS” stands “high polyreactivity”; under “QVQLVESGGGLVQAGGSLRISCAASGSLFYRYAMGWYRQAPGKEREMVAAINDSGGGTYYADSVKGRFTISRDKAKNTVYLQMNSLKPEDTAVYYCAAATHNKHTARDDYWGQGTQVNVSS”, “low polyreactivity”.

Take “QVQLVESGGGLVQAGGSLRISCAASGSNSNANAMGWYRQAPGKQREFVADISRSRGRTYYADSVKGRFTISRDNAKYTVYLQMNSLKPEVTAVYYCAAGGFGAGNNYWGQGTQVTVSS”: the “polyreactivity (PSR sort gate)” value is given as “high polyreactivity”. The result for “QVQLVESGGGLVQAGGSLRISCAASGSTFDGNAMGWYRQAPGKERELVAAISDGDSTTNADSVKGRFTISRDNAKNTVYLQMNSLKPEDTAVYYCAARSPGDQRLGRHYYGEFDYWGQGTQVTVSS” reads “low polyreactivity”; that for “QVQLVESGGGLVQAGGSLRISCAASGSTFLYNNMGWYRQAPGKERELVAAITWSGGNTYYADSVKGRFTISRDNAKNTVYLQMNSLKPEDTAVYYCNAVWYPPKRKCFDYWGQGTQVTVSS”, “low polyreactivity”.

Turning to “QVQLVESGGGLVQAGGSLRISCAASGSTFRRYPIGWYRQAPGKEREFVAVITSSGVITYYADSVKGRFTISRDNAKNTVYLQMNSLKPEDTAVYYCATDARSMDYWGQGTQVTVSS”, the “polyreactivity (PSR sort gate)” value is “low polyreactivity”. The result for “QVQLVESGGGLVQAGGSLRISCAASGSTFVPNTMGWYRQAPGKERELVAAITYSGGSTYYADSVKGRFTISRDYAKNTVYLLMNSLKPEDTEVYYCAAEGTTWYYDMDYWGQGTQVTVSS” reads “low polyreactivity”. Under “QVQLVESGGGLVQAGGSLRISCAASGSTFWYYAMGWYRQAPGKERELVAAINSDDSTNYADSVKGRFTISRDNAKNTVYLQMNSLKPEDTAVYYCNRGFVYSTTGLWRYYDFDYWGQGTQVTVSS” stands “low polyreactivity”.
